According to article PMC6382854 (2019):
Substitutions are numbered along the chain they refer to.

Molecular target: taxol-stabilized microtubules (polymerized porcine tubulin) (porcine, UniProt P02550 1-451; P02554 1-445)
Sequence (P02550 whole entry, chain 1 of 2): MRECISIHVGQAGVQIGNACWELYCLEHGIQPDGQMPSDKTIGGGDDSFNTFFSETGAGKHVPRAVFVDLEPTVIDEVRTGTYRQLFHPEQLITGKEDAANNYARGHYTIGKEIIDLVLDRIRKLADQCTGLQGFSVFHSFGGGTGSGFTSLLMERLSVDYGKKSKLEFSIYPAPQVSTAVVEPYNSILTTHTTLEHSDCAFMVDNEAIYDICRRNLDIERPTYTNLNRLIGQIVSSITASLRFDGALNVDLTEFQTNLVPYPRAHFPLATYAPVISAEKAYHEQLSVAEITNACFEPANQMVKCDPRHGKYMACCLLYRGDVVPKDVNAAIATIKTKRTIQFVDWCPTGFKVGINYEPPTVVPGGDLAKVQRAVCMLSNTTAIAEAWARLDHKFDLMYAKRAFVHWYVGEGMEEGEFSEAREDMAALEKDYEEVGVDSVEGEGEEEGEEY
Sequence (P02554 whole entry, chain 2 of 2): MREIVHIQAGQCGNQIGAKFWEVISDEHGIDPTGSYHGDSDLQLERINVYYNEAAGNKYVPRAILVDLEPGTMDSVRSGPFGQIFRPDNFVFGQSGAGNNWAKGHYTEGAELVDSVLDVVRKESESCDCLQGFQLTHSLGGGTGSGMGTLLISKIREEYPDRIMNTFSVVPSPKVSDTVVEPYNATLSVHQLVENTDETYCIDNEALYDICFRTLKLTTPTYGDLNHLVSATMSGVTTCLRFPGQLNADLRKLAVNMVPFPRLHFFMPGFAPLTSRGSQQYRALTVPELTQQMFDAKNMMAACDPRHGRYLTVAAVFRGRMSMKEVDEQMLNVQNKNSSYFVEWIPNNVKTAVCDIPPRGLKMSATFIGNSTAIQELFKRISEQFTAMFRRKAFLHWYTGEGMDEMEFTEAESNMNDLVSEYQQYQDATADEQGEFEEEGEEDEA

B1: 6xHis-tagged CC1ΔC223 (cytosolic N-terminal part of COMPANION OF CELLULOSE SYNTHASE 1, residues 1-120) (domain or fragment)
chain: MHAKTDSEVTSLAASSPARSPRRPVYYVQSPSRDSHDGEKTATSFHSTPVLSPMGSPPHSHSSMGRHSRESSSSRFSGSLKPGSRKVNPNDGSKRKGHGGEKQWKECAVIEEEGLLDDGD
Binder B1 has a Kd of 6.9 µM.

B2: 6xHis-tagged CC1ΔC223YYAA (domain or fragment)
chain: B1 chain with Y26A, Y27A
In the case of B2, the Kd is reported as 16.3 µM.
